Experimental data as given in publication doi:10.1101/2025.01.22.634229, “Computationally designed stem-epitope mimetics elicit broadly reactive antibodies” (bioRxiv, 2025).

Experiments:
Conditions in all cases: both partners purified
FI6-focused_03 = molecular target: T1, FI6-focused_03 (synthetic design on Bacteroides …); test: SPR
T1 construct: also called FI6-focused design_03; design_03 scaffold; source: E. coli BL21 (DE3), purified (Ni-NTA, SEC)
T1 chain: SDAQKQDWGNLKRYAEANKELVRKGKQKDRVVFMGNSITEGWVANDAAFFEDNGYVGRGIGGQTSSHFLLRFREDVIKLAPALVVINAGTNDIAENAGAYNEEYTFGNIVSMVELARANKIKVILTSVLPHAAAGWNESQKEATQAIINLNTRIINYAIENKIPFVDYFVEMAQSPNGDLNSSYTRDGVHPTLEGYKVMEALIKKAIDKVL

FI6-focused_04 = molecular target: T2, FI6-focused_04 (synthetic design on Bacteroides …); test: SPR; Biacore 8K, HBS-EP+; ligand on a CM5 chip by amine coupling, named FI6 Fab in the legend of Figure 2A and 2D (the methods say IgG); monomeric design as analyte (62.5 nM to 7.8 nM for FI6-focused_04; 5 μM to 312.5 nM for stem-mimetic_01); 1:1 Langmuir fit
T2 construct: also called FI6-focused design_04; FI6-focused design; source: E. coli BL21 (DE3), purified (Ni-NTA, SEC)
T2 chain: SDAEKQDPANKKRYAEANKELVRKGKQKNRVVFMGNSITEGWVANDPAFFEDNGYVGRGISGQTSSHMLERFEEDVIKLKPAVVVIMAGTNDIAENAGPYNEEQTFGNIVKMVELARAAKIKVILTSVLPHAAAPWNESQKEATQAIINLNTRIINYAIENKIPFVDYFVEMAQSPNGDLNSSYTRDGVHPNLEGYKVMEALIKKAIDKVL

stem-mimetic_01 = molecular target: T3, stem-mimetic_01 (synthetic design on Mus musculus ApoE …, chimera); test: as above
T3 construct: source: E. coli BL21 (DE3), purified (Ni-NTA, SEC)
T3 chain: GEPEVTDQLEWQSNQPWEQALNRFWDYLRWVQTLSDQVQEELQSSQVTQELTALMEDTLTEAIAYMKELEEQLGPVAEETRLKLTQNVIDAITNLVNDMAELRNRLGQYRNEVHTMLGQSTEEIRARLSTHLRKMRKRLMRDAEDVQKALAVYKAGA

Binder | Kd (FI6-focused_03) | Kd (FI6-focused_04) | Kd (stem-mimetic_01)
FI6 antibody (IgG) (antibody, V domains shown, also called FI6 Ab; source: Expi293, purified (protein A, SEC)) VH: QVQLVESGGGVVQPGRSLRLSCAASGFTFSTYAMHWVRQAPGKGLEWVAVISYDANYKYYADSVKGRFTISRDNSKNTLYLQMNSLRAEDTAVYYCAKDSQLRSLLYFEWLSQGYFDYWGQGTLVTVSS VL: DIVMTQSPDSLAVSLGERATINCKSSQSVTFNYKNYLAWYQQKPGQPPKLLIYWASTRESGVPDRFSGSGSGTDFTLTISSLQAEDVAVYYCQQHYRTPPTFGQGTVEIK | 0.26 nM |  | 
FI6 Fab (Fab, V domains shown) VH: QVQLVESGGGVVQPGRSLRLSCAASGFTFSTYAMHWVRQAPGKGLEWVAVISYDANYKYYADSVKGRFTISRDNSKNTLYLQMNSLRAEDTAVYYCAKDSQLRSLLYFEWLSQGYFDYWGQGTLVTVSS VL: DIVMTQSPDSLAVSLGERATINCKSSQSVTFNYKNYLAWYQQKPGQPPKLLIYWASTRESGVPDRFSGSGSGTDFTLTISSLQAEDVAVYYCQQHYRTPPTFGQGTVEIK |  | 6 nM | 44 nM
